According to patent publication US20230265151A1, “GIP/GLP1 CO-AGONIST COMPOUNDS” (priority 2020, published 2023):
*1 amine or outer side, *2 acyl side, *3 side chain or, on linkers, in order; H or OH if unused. Where no end group is shown, it is not given here. Side-chain parts run from the residue outwards. [ ]: non-standard residue; d: D form. The star is where a group is joined. Undecanoyl(11-OPh(4-COOH)) = O=C(O)c1ccc(OCCCCCCCCCCC(=O)*)cc1; Decanoyl(10-(4-HOOC-PhO)) = O=C(O)c1ccc(OCCCCCCCCCC(=O)*)cc1; αMePhe(2-F) = C[C@](N)(Cc1ccccc1F)C(=O)O; γGlu = O=C(O)[C@H](CCC(=O)[*:2])N[*:1]; C14 diacid = O=C(O)CCCCCCCCCCCCC(=O)*; αMeY = C[C@](N)(Cc1ccc(O)cc1)C(=O)O; αMeL = CC(C)C[C@](C)(N)C(=O)O; αMeS = C[C@](N)(CO)C(=O)O; Orn = NCCC[C@H](N)C(=O)O; AEEA = NCCOCCOCC(=O)O; Aib = CC(C)(N)C(=O)O

T1: human GIP receptor (human, UniProt P48546 22-466)
T1 sequence (looked up): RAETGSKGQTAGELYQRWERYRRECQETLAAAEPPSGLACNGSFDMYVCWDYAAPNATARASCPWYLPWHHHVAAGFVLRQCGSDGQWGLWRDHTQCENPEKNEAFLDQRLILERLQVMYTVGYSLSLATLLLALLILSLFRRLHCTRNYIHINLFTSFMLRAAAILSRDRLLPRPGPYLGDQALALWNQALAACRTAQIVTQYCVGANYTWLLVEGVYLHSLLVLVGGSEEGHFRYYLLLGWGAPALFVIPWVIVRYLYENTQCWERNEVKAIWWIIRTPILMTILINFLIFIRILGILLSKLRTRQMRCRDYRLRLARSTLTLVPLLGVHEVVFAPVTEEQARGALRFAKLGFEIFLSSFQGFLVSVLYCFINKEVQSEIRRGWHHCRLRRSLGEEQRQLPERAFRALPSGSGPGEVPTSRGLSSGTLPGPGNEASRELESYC

T2: human GIP receptor (human, UniProt P48546 22-466)
T2 sequence (looked up): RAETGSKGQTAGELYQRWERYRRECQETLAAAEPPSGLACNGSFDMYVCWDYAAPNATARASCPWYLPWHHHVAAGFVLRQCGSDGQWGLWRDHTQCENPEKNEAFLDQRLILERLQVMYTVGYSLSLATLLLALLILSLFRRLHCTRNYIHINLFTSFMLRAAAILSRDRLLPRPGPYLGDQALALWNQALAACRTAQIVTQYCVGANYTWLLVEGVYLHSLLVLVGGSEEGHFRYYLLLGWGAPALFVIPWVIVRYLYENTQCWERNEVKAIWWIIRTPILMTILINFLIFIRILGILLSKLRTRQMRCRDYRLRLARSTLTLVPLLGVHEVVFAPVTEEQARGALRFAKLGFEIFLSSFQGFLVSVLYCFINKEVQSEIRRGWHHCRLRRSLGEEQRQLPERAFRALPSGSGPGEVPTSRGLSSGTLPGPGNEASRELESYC


Columns and labels:
Experiment in all cases: cell-based or functional assay
human GIP receptor [1] = molecular target: T1, human GIP receptor
human GLP-1 receptor [2] = molecular target: human GLP-1 receptor (human, UniProt P43220 24-463)
human GIP receptor [3] = molecular target: T2, human GIP receptor; remark: listed apart in the source
human GLP-1 receptor [4] = molecular target: human GLP-1 receptor (human, UniProt P43220 24-463); remark: listed apart in the source

| Binder | cAMP EC50 (1.0% HSA) (human GIP receptor [1]) | cAMP Emax (1.0% HSA) (human GIP receptor [1]) | cAMP EC50 (1.0% HSA) (human GLP-1 receptor [2]) | cAMP Emax (1.0% HSA) (human GLP-1 receptor [2]) | cAMP EC50 (1.0% HSA) (human GIP receptor [3]) | cAMP EC50 (1.0% HSA) (human GLP-1 receptor [4]) |
| --- | --- | --- | --- | --- | --- | --- |
| Y[Aib]EGT[αMePhe(2-F)]TSDV[Aib]I[αMeL]LD[Orn]IAQ[Aib]EFIK([AEEA-AEEA-AEEA-γGlu-C14 diacid])[αMeY]LIK([AEEA-AEEA-AEEA-γGlu-C14 diacid])GGPSSGAPPPS-NH2 (N-terminus assumed; SMILES CC[C@H](C)[C@H](NC(=O)[C@H](CCCN)NC(=O)[C@H](CC(=O)O)NC(=O)[C@H](CC(C)C)NC(=O)[C@](C)(CC(C)C)NC(=O)[C@@H](NC(=O)C(C)(C)NC(=O)[C@@H](NC(=O)[C@H](CC(=O)O)NC(=O)[C@H](CO)NC(=O)[C@@H](NC(=O)[C@](C)(Cc1ccccc1F)NC(=O)[C@@H](NC(=O)CNC(=O)[C@H](CCC(=O)O)NC(=O)C(C)(C)NC(=O)[C@@H](N)Cc1ccc(O)cc1)[C@@H](C)O)[C@@H](C)O)C(C)C)[C@@H](C)CC)C(=O)N[C@@H](C)C(=O)N[C@@H](CCC(N)=O)C(=O)NC(C)(C)C(=O)N[C@@H](CCC(=O)O)C(=O)N[C@@H](Cc1ccccc1)C(=O)N[C@H](C(=O)N[C@@H](CCCCNC(=O)COCCOCCNC(=O)COCCOCCNC(=O)COCCOCCNC(=O)CC[C@H](NC(=O)CCCCCCCCCCCCC(=O)O)C(=O)O)C(=O)N[C@@](C)(Cc1ccc(O)cc1)C(=O)N[C@@H](CC(C)C)C(=O)N[C@H](C(=O)N[C@@H](CCCCNC(=O)COCCOCCNC(=O)COCCOCCNC(=O)COCCOCCNC(=O)CC[C@H](NC(=O)CCCCCCCCCCCCC(=O)O)C(=O)O)C(=O)NCC(=O)NCC(=O)N1CCC[C@H]1C(=O)N[C@@H](CO)C(=O)N[C@@H](CO)C(=O)NCC(=O)N[C@@H](C)C(=O)N1CCC[C@H]1C(=O)N1CCC[C@H]1C(=O)N1CCC[C@H]1C(=O)N[C@@H](CO)C(N)=O)[C@@H](C)CC)[C@@H](C)CC) [Example 344] | 6.78 nM | 87.3% | 48.3 nM |  |  |  |
| Y[Aib]EGT[αMePhe(2-F)]TSDV[αMeS]I[αMeL]LD[Orn]IAQ[Aib]EFIK([AEEA-AEEA-γGlu-Decanoyl(10-(4-HOOC-PhO))])[αMeY]LIK([AEEA-AEEA-γGlu-Decanoyl(10-(4-HOOC-PhO))])GGPSSGAPPPS-NH2 [Example 309] | 6.08 nM |  | 64.6 nM |  |  |  |
| Y[Aib]EGT[αMePhe(2-F)]TSDV[αMeS]I[αMeL]LD[Orn]IAQ[Aib]EFIK([AEEA-AEEA-γGlu-C14 diacid])[αMeY]LIK([AEEA-AEEA-γGlu-C14 diacid])GGPSSGAPPPS-NH2 (N-terminus assumed; SMILES CC[C@H](C)[C@H](NC(=O)[C@H](CCCN)NC(=O)[C@H](CC(=O)O)NC(=O)[C@H](CC(C)C)NC(=O)[C@](C)(CC(C)C)NC(=O)[C@@H](NC(=O)[C@](C)(CO)NC(=O)[C@@H](NC(=O)[C@H](CC(=O)O)NC(=O)[C@H](CO)NC(=O)[C@@H](NC(=O)[C@](C)(Cc1ccccc1F)NC(=O)[C@@H](NC(=O)CNC(=O)[C@H](CCC(=O)O)NC(=O)C(C)(C)NC(=O)[C@@H](N)Cc1ccc(O)cc1)[C@@H](C)O)[C@@H](C)O)C(C)C)[C@@H](C)CC)C(=O)N[C@@H](C)C(=O)N[C@@H](CCC(N)=O)C(=O)NC(C)(C)C(=O)N[C@@H](CCC(=O)O)C(=O)N[C@@H](Cc1ccccc1)C(=O)N[C@H](C(=O)N[C@@H](CCCCNC(=O)COCCOCCNC(=O)COCCOCCNC(=O)CC[C@H](NC(=O)CCCCCCCCCCCCC(=O)O)C(=O)O)C(=O)N[C@@](C)(Cc1ccc(O)cc1)C(=O)N[C@@H](CC(C)C)C(=O)N[C@H](C(=O)N[C@@H](CCCCNC(=O)COCCOCCNC(=O)COCCOCCNC(=O)CC[C@H](NC(=O)CCCCCCCCCCCCC(=O)O)C(=O)O)C(=O)NCC(=O)NCC(=O)N1CCC[C@H]1C(=O)N[C@@H](CO)C(=O)N[C@@H](CO)C(=O)NCC(=O)N[C@@H](C)C(=O)N1CCC[C@H]1C(=O)N1CCC[C@H]1C(=O)N1CCC[C@H]1C(=O)N[C@@H](CO)C(N)=O)[C@@H](C)CC)[C@@H](C)CC) [Example 305] | 4.34 nM |  | 80.3 nM | 125% |  |  |
| Y[Aib]EGT[αMePhe(2-F)]TSDV[Aib]I[αMeL]LD[Orn]IAQ[Aib]EFIK([AEEA-AEEA-AEEA-γGlu-Decanoyl(10-(4-HOOC-PhO))])[αMeY]LIK([AEEA-AEEA-AEEA-γGlu-Decanoyl(10-(4-HOOC-PhO))])GGPSSGAPPPS-NH2 [Example 347] | 7.27 nM | 84.6% | 51.7 nM |  |  |  |
| Y[Aib]EGT[αMePhe(2-F)]TSDV[Aib]I[αMeL]LD[Orn]IAQ[Aib]EFIK([AEEA-AEEA-γGlu-Decanoyl(10-(4-HOOC-PhO))])[αMeY]LIK([AEEA-AEEA-γGlu-Decanoyl(10-(4-HOOC-PhO))])GGPSSGAPPPS-NH2 [Example 308] | 10.5 nM |  | 67.3 nM |  |  |  |
| YXEGTXTSDXXIXLDXIAQXEFIKXLIKGGPSSGAPPPS (Y-Aib-EGT-αMeF(2F)-TSD-4Pal-Aib-I-αMeL-LD-Orn-IAQ-Aib-EFIK((2-[2-(2-Amino-ethoxy)-ethoxy]-acetyl)-(γ-Glu)-CO-(CH2)12-CO2H)-αMeY-LIK((2-[2-(2-Amino-ethoxy)-ethoxy]-acetyl)-(γ-Glu)-CO-(CH2)12-CO2H)GGPSSGAPPPS-NH2) [Example 339] | 4.35 nM |  | 68.2 nM | 115% |  |  |
| Y[Aib]EGT[αMePhe(2-F)]TSDV[Aib]I[αMeL]LD[Orn]IAQ[Aib]EFIK([AEEA-AEEA-γGlu-Undecanoyl(11-OPh(4-COOH))])[αMeY]LIK([AEEA-AEEA-γGlu-Undecanoyl(11-OPh(4-COOH))])GGPSSGAPPPS-NH2 [Example 313] | 21.9 nM |  | 98.8 nM |  |  |  |
| Y[Aib]EGT[αMePhe(2-F)]TSDV[Aib]I[αMeL]LD[Orn]IAQ[Aib]EFIK([AEEA-γGlu-Decanoyl(10-(4-HOOC-PhO))])[αMeY]LIK([AEEA-γGlu-Decanoyl(10-(4-HOOC-PhO))])GGPSSGAPPPS-NH2 [Example 381] |  |  |  |  | 28 nM | 153 nM |
